Test results: paper doi:10.1101/2021.12.29.474488 (bioRxiv, 2021)

Legend:
[1] = target: MgtE T336C/L421C mutant lacking the N domain (T. thermophilus) (UniProt Q5SMG8); assay: cross-linking
[2] = target: the molecule itself; assay: crystal structure

Row | stoichiometry N [1] | Molecule | binding result [2]
1 | 2 | MgtE T336C/L421C mutant lacking the N domain (from UniProt Q5SMG8 130-450) (domain or fragment) | –
2 | – | MgtE transmembrane (TM) domain from Thermus thermophilus (domain or fragment, T. thermophilus, UniProt Q5SMG8 268-450, looked up) VPDLVYSEAGPVALWLARVRWLVILILTGMVTSSILQGFESVLEAVTALAFYVPVLLGTGGNTGNQSATLIIRALATRDLDLRDWRRVFLKEMGVGLLLGLTLSFLLVGKVYWDGHPLLLPVVGVSLVLIVFFANLVGAMLPFLLRRLGVDPALVSNPLVATLSDVTGLLIYLSVARLLLEAV | binds
